How the values were obtained:
[1] = system: human hepatocyte nuclear factor 1α (HNF-1α), His and Xpress-tagged at the N-terminus
[2] = system: human insulin promoter factor 1 (IPF-1), His and Xpress-tagged at the N-terminus
[3] = system: T1, human hepatocyte nuclear factor 4α (HNF-4α), His and Xpress-tagged at the N-terminus
T1 sequence: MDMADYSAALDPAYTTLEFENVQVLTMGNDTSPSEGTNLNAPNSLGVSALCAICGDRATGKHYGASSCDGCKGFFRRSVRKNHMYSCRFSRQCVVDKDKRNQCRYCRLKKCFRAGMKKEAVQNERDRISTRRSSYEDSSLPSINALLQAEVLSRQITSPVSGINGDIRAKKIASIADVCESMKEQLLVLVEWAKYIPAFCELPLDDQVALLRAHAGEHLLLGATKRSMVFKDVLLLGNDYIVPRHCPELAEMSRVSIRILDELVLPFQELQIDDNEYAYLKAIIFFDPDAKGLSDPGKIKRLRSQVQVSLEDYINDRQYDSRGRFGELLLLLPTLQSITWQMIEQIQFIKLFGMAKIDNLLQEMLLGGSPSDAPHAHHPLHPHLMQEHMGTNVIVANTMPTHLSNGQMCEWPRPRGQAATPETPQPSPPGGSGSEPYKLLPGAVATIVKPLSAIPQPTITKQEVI

human hepatocyte nuclear factor 1α (HNF-1α), His and Xpress-tagged at the N-terminus, sequence (chain, as listed by the source): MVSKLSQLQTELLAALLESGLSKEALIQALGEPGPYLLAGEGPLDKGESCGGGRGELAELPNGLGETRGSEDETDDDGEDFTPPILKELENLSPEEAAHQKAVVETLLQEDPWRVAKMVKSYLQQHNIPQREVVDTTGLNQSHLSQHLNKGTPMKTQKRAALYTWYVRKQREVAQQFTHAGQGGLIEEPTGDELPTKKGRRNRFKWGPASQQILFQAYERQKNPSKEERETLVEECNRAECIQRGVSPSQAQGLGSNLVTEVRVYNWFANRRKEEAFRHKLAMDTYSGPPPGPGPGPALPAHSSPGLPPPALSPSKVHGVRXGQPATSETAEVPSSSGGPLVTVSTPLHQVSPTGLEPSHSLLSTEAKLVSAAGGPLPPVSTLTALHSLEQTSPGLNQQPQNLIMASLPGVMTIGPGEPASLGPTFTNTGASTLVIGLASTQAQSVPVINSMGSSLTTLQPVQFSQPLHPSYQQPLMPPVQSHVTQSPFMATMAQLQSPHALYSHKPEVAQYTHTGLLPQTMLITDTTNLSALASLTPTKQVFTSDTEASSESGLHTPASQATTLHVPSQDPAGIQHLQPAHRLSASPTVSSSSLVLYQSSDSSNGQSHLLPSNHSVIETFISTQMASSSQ
human insulin promoter factor 1 (IPF-1), His and Xpress-tagged at the N-terminus, sequence (chain, as listed by the source): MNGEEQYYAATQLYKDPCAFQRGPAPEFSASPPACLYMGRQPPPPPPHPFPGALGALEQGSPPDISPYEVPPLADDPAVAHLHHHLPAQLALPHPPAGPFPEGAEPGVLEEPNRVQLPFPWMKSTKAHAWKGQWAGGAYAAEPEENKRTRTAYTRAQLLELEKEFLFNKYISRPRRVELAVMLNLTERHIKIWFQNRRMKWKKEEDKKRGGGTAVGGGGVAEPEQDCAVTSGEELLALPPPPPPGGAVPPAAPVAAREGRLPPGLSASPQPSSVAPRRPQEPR

| Substance | in vitro protein degradation test, Western blotting with anti-Omni/M21 and anti-HNF-1α antibody [1] | in vitro protein degradation test, Western blotting with anti-Xpress and anti-IPF-1 antibody [2] | in vitro protein degradation test, Western blotting with anti-HNF-4α and anti-Xpress antibody [3] | in vitro protein degradation test, Western blotting with anti-HNF-1α antibody [1] | in vitro protein degradation test, Western blotting with anti-IPF-1 antibody [2] | in vitro protein degradation test, Western blotting with anti-HNF-4α antibody [3] |
| --- | --- | --- | --- | --- | --- | --- |
| rabbit m-calpain, extracted from rabbit muscle (Protease, Calcium-Activated Neutral (calpain), Sigma Chemical Co.) | the in vitro degradation of HNF-1α by each of human µ-calpain, rabbit m-calpain and rat m-calpain was observed | the in vitro degradation of IPF-1 by each of human µ-calpain, rabbit m-calpain and rat m-calpain was observed | the degradation of HNF-4α by rabbit m-calpain was observed |  |  |  |
| human m-calpain coexpressed with calpain small subunit 1 in sf-9 insect cells (cell lysate) |  |  |  | the degradation of human HNF-1α by human m-calpain was observed | the degradation of human IPF-1 by human m-calpain was observed | the degradation of human HNF-4α by human m-calpain was observed |

Source: patent US20070004636
